Molecular target: H-2Kb-restricted ova peptide SIINFEKL presented on H-2Kb (chicken)
Assay: cell-based or functional assay

- IFN-gamma ELISPOT, spots per well (spots per well): > 1000
Substance: transgenic OT-I T-cell receptor (TCR)
